In the supplement of paper PMC10567573:

B1: RHOBTB3 (parent)
chain: VSHVFMLLFNVKSPTDIQDSSIIR

Variants of: B1
Assay: protein stability index of a GFP-peptide fusion (GPS, HEK-293T) (PSI 1-6); higher = more stable
Settings: c terminus: a fixed tail appended
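Also: lentivirally expressed fusions sorted by FACS into six bins by GFP to DsRed ratio, PSI derived from sequencing read proportions per bin multiplied by bin number.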

Protein stability index, by site and new letter:
M6: G 2.29 | N 2.98 | L 3.66 | Y 3.18 | T 2.99 | P 1.59 | H 2.87 | Q 2.24 | E 2.43 | V 3.62 | D 2.26 | F 3.03 | K 1.42 | R 1.77 | I 2.83 | C 1.98 | A 3 | S 2.2
L7: P 2.18 | V 2.34 | N 2.25 | W 2.9 | T 2.73 | H 3.82 | Y 2.77 | I 2.99 | G 2.25 | S 1.72 | C 2.94 | Q 2.23 | F 3.17 | A 1.74 | D 1.93 | K 1.59 | E 2.13 | R 2.4 | M 2.37
V4: M 2.52 | R 3.04 | N 1.19 | D 2.16 | P 2.12 | S 1.89 | Q 3.13 | Y 1.61 | T 2.54 | E 1.3 | W 2.46 | C 4.79 | G 2.28 | K 1.97 | F 4.42
T15: F 3.38 | G 2.76 | C 3.31 | I 2.23
H3: Q 2.51 | D 2.38 | L 2.69 | E 1.42 | M 1.78 | P 1.52 | R 2.1 | S 2.28 | V 3.75 | G 3.65 | W 3.07
S13: I 4.29 | T 3.82 | H 2.37 | K 2.17 | C 4.63 | M 3.52 | E 2.99 | Y 2.31 | D 2.36 | F 3.32 | L 3.37
V11: E 2.08 | Q 1.82 | N 3.13 | C 3.03 | W 2.83 | G 3.8 | P 2.94 | L 4.23 | D 1.23 | S 3.03 | F 2.74 | H 3.04 | I 3.24 | R 3.03 | M 3.81
F9: R 2.74 | A 1.92 | L 3.21 | E 2.21 | T 1.57 | P 1.55 | D 1.45 | Q 1.5 | C 2.44 | W 3.94 | N 1.93 | S 2.61 | I 2.62 | Y 4.01 | K 2.21 | H 1.63 | G 1.69
N10: T 2.15 | D 3.9 | W 3.77 | G 2.24 | L 3.27 | V 2.13 | A 2.47 | P 2.3 | C 1.43 | H 3.06 | I 2.19
S2: Y 2.75 | F 3.6 | N 2.84 | W 2.82 | L 3.13 | M 3.95 | V 3.75 | K 3.57 | D 2.44 | G 2.58 | A 2.55
V1: N 1.89 | I 3.46 | F 2.54 | W 3.32 | M 3.38 | E 2.08 | P 3.42 | K 1.05 | S 2.88 | D 2.05 | L 1.33 | A 2.98 | Q 2.22
L8: M 2.95 | H 2.23 | F 2.22 | N 2.46 | S 2.78 | D 1.81 | K 2.71 | G 2.55 | C 2.23 | P 2.34 | E 1.36 | Q 2.75
P14: E 2.14 | W 3.15 | A 3.26 | V 3.52 | K 2.58 | F 3.75 | S 3.49 | I 3.62 | M 1.72 | G 4.07
